# Experimental data as given in US6379665B1, “Phospholipase D polypeptide and DNA sequences” (Onyx Pharmaceuticals, Inc., priority 1996, dated 2002).
# B1: PLD1: purified recombinant mammalian PLD1 (SEQ ID NOS:2 or 5), a/b form not specified (protein, UniProt Q13393 1-1074, looked up)
# Phospholipase D1: MSLKNEPRVNTSALQKIAADMSNIIENLDTRELHFEGEEVDYDVSPSDPKIQEVYIPFSAIYNTQGFKEPNIQTYLSGCPIKAQVLEVERFTSTTRVPSINLYTIELTHGEFKWQVKRKFKHFQEFHRELLKYKAFIRIPIPTRRHTFRRQNVREEPREMPSLPRSSENMIREEQFLGRRKQLEDYLTKILKMPMYRNYHATTEFLDISQLSFIHDLGPKGIEGMIMKRSGGHRIPGLNCCGQGRACYRWSKRWLIVKDSFLLYMKPDSGAIAFVLLVDKEFKIKVGKKETETKYGIRIDNLSRTLILKCNSYRHARWWGGAIEEFIQKHGTNFLKDHRFGSYAAIQENALAKWYVNAKGYFEDVANAMEEANEEIFITDWWLSPEIFLKRPVVEGNRWRLDCILKRKAQQGVRIFIMLYKEVELALGINSEYTKRTLMRLHPNIKVMRHPDHVSSTVYLWAHHEKLVIIDQSVAFVGGIDLAYGRWDDNEHRLTDVGSVKRVTSGPSLGSLPPAAMESMESLRLKDKNEPVQNLPIQKSIDDVDSKLKGIGKPRKFSKFSLYKQLHRHHLHDADSISSIDSTSSYFNHYRSHHNLIHGLKPHFKLFHPSSESEQGLTRPHADTGSIRSLQTGVGELHGETRFWHGKDYCNFVFKDWVQLDKPFADFIDRYSTPRMPWHDIASAVHGKAARDVARHFIQRWNFTKIMKSKYRSLSYPFLLPKSQTTAHELRYQVPGSVHANVQLLRSAADWSAGIKYHEESIHAAYVHVIENSRHYIYIENQFFISCADDKVVFNKIGDAIAQRILKAHRENQKYRVYVVIPLLPGFEGDISTGGGNALQAIMHFNYRTMCRGENSILGQLKAELGNQWINYISFCGLRTHAELEGNLVTELIYVHSKLLIADDNTVIIGSANINDRSMLGKRDSEMAVIVQDTETVPSVMDGKEYQAGRFARGLRLQCFRVVLGYLDDPSEDIQDPVSDKFFKEVWVSTAARNATIYDKVFRCLPNDEVHNLIQLRDFINKPVLAKEDPIRAEEELKKIRGFLVQFPFYFLSEESLLPSVGTKEAIVPMEVWT
# B2: hPLD1b: human phospholipase D1b splice variant, approximately 1036 amino acid protein, SEQ ID NO:5 (protein, listed as Homo sapiens)
# chain: MSLKNEPRVNTSALQKIAADMSNIIENLDTRELHFEGEEVDYDVSPSDPKIQEVYIPFSAIYNTQGFKEPNIQTYLSGCPIKAQVLEVERFTSTTRVPSINLYTIELTHGEFKWQVKRKFKHFQEFHRELLKYKAFIRIPIPTRRHTFRRQNVREEPREMPSLPRSSENMIREEQFLGRRKQLEDYLTKILKMPMYRNYHATTEFLDISQLSFIHDLGPKGIEGMIMKRSGGHRIPGLNCCGQGRACYRWSKRWLIVKDSFLLYMKPDSGAIAFVLLVDKEFKIKVGKKETETKYGIRIDNLSRTLILKCNSYRHARWWGGAIEEFIQKHGTNFLKDHRFGSYAAIQENALAKWYVNAKGYFEDVANAMEEANEEIFITDWWLSPEIFLKRPVVEGNRWRLDCILKRKAQQGVRIFIMLYKEVELALGINSEYTKRTLMRLHPNIKVMRHPDHVSSTVYLWAHHEKLVIIDQSVAFVGGIDLAYGRWDDNEHRLTDVGSVKRVTSGPSLGSLPPAAMESMESLRLKDKNEPVQNLPIQKSIDDVDSKLKGIGKPRKFSKFSLYKQLHRHHLHDADSISSIDSTSNTGSIRSLQTGVGELHGETRFWHGKDYCNFVFKDWVQLDKPFADFIDRYSTPRMPWHDIASAVHGKAARDVARHFIQRWNFTKIMKSKYRSLSYPFLLPKSQTTAHELRYQVPGSVHANVQLLRSAADWSAGIKYHEESIHAAYVHVIENSRHYIYIENQFFISCADDKVVFNKIGDAIAQRILKAHRENQKYRVYVVIPLLPGFEGDISTGGGNALQAIMHFNYRTMCRGENSILGQLKAELGNQWINYISFCGLRTHAELEGNLVTELIYVHSKLLIADDNTVIIGSANINDRSMLGKRDSEMAVIVQDTETVPSVMDGKEYQAGRFARGLRLQCFRVVLGYLDDPSEDIQDPVSDKFFKEVWVSTAARNATIYDKVFRCLPNDEVHNLIQLRDFINKPVLAKEDPIRAEEELKKIRGFLVQFPFYFLSEESLLPSVGTKEAIVPMEVWT
# System: HL-60 cells
# Experiment: RT-PCR quantification of hPLD1a and hPLD1b during dbcAMP-induced HL-60 cell differentiation
# Format: cell-based, human
# Conditions: 0.5 mM dbcAMP
# Method: To analyze changes in the levels of hPLD1 a and hPLD1b during HL-60 cell differentiation induced by dcbAMP, HL-60 cells maintained in RPMI-1640 medium supplemented with 10% fetal bovine serum, 100 units/ml penicillin and 100 µg/ml streptomycin in a humidified atmosphere containing 5% CO2, at 37 C. were grown in RPMI-1640 medium without fetal bovine serum for 24 hours. Differentiation was initiated by the addition of 0.5 mM dbcAMP. Levels of PLD1a and PLD1b were quantified by RT-PCR. Total RNA was isolated from the HL-60 cells at the exponential growth stage by the acid guanidine thiocyanate method following the protocol of Chomczynski, Anal. Biochem. 162: 156-62(1992). Two g of RNA was reverse transcribed by using random hexamer mixed primers. The number of amplification cycles were determined to individual primer sets in order to maintain exponential rate of product amplification. Amplified DNA fragments were subjected to electrophoresis on 1.5% agarose gel and visualized by ethidium bromide staining. The intensity of bands was quantified by a densitometer (Atto Densitograph, Tokyo, Japan). Primer A (Forward): nucleotides 1475 through 1491; primer B (reverse) nucleotides 2133 through 2113 of SEQ ID NO: 1. Amplification conditions used were 94 C. for 30 seconds, 60 C. for 1 minute, and 72 C. for 1 minute; 25-27 cycles.
Molecule,"increase over the 3 day differentiation period (3 days, RT-PCR)","increase in level (printed as activity) on day 1 (day 1, RT-PCR)","increase in level (printed as activity) on day 2 (day 2, RT-PCR)","increase in level (printed as activity) on day 3 (day 3, RT-PCR)"
B1,3-4 fold,–,–,–
B2,–,less than 2 fold,approximately 3 fold,approximately 3.5 fold
